Target: F-actin of the thin filaments in NRCs, labelled with Phalloidin-iFluor 514 (rat (endogenous in neonatal rat cardiomyocytes)) (UniProt P68035)
Test: FRET or BRET; FRET-FLIM (time-domain, TCSPC, donor lifetime) in NRCs demembranated in relaxing solution with 25 μmol/L nitro-blebbistatin and fixed with paraformaldehyde; mTFP donor, mVenus or Phalloidin-iFluor514 acceptor; cells untreated or incubated with isoproterenol before skinning

mTFP-cMyBP-C (cardiac myosin binding protein-C with mTFP conjugated to its N terminus), sequence (Q14896 whole entry): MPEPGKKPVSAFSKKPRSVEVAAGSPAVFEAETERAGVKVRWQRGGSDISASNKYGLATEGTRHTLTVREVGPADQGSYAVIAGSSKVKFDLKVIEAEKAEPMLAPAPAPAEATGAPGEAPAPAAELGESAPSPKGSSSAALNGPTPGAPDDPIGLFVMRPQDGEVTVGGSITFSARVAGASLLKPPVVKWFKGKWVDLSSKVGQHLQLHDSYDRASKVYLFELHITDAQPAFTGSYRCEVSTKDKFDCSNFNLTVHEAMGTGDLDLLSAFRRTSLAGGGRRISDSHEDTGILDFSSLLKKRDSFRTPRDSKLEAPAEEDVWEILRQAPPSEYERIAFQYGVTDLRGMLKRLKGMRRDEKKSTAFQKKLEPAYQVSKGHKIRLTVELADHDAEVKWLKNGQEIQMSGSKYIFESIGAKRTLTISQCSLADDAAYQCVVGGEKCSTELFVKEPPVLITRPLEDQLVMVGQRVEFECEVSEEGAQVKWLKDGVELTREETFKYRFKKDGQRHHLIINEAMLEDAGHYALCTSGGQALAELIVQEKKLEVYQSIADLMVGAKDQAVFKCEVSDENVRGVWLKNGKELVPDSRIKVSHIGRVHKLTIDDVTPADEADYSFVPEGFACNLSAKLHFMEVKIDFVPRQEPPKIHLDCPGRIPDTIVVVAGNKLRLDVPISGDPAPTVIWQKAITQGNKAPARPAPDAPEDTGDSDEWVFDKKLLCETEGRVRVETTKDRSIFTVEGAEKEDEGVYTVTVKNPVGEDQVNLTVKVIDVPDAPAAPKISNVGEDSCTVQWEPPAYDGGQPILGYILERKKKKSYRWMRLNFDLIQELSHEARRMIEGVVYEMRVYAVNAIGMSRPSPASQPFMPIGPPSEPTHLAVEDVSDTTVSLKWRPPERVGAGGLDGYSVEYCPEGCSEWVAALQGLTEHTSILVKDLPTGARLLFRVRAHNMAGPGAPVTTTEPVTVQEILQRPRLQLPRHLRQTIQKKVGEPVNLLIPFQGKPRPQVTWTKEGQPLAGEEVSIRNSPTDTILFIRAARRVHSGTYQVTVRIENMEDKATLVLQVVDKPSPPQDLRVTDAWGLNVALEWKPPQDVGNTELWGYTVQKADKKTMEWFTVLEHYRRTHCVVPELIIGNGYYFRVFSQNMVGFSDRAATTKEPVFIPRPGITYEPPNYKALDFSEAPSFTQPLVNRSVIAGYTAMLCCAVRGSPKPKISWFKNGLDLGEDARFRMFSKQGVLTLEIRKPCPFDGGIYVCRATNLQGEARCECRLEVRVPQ

mTFP-cMyBP-C (cardiac myosin binding protein-C with mTFP conjugated to its N terminus) (from UniProt Q14896 1-1274) (natural protein)
FRET efficiency <E%>: 12%

Reference: PMC10041117
